# According to patent US20240189230A1, “PALM FOR THE TREATMENT OF CHEMOTHERAPY-INDUCED PERIPHERAL NEUROPATHY INCIDENTAL TO THE TREATMENT OF CANCER” (Peptinovo Biopharma Inc., priority 2019, published 2024):
# Non-standard residues stand in square brackets, D forms with d. No end group written: not given here. Aib = CC(C)(N)C(=O)O
# T1: human scavenger receptor class B, type 1 (SR-BI) (human, UniProt Q8WTV0 1-552)
# T1 sequence (looked up): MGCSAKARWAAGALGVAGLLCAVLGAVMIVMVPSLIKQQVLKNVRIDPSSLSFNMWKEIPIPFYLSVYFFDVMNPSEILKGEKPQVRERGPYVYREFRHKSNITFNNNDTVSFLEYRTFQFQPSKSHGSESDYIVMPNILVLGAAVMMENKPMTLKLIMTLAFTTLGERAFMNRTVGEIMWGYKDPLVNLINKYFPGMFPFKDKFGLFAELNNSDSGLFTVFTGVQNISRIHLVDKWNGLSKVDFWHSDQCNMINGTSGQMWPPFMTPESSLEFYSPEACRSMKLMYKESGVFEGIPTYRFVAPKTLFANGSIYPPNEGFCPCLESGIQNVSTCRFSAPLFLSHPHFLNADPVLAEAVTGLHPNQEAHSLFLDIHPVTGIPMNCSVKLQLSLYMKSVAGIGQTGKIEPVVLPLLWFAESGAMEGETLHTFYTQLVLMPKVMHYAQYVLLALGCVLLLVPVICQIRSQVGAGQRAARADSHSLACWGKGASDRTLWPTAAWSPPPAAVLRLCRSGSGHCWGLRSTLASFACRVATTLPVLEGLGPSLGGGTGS
# B1: DiI-labeled PALM prepared with the peptide of SEQ ID NO: 35 (peptide)
# peptide: DVFQKL[Aib]ELFNQL[Aib]EKWKQV
# modifications: also: formulated as DiI-labeled peptide amphiphile lipid micelle with POPC and egg sphingomyelin
# B2: DiI-labeled PALM prepared with the peptide of SEQ ID NO: 5 (peptide)
# peptide: DVFQ[Aib]LKELLNQLLEKFKQV
# modifications: also: formulated as DiI-labeled peptide amphiphile lipid micelle with POPC and egg sphingomyelin
# B3: DiI-labeled PALM prepared with the peptide of SEQ ID NO: 32 (peptide)
# peptide: DV[Aib]QKFLELFNQLLEKWKQV
# modifications: also: formulated as DiI-labeled peptide amphiphile lipid micelle with POPC and egg sphingomyelin
# B4: DiI-labeled PALM prepared with the peptide of SEQ ID NO: 25 (peptide)
# peptide: DVFQKL[Aib]ELFNQLLEKWKQV
# modifications: also: formulated as DiI-labeled peptide amphiphile lipid micelle with POPC and egg sphingomyelin
# B5: DiI-labeled PALM prepared with the peptide of SEQ ID NO: 27 (peptide)
# peptide: DV[Aib]QKLFELFNQLLEKWKQV
# modifications: also: formulated as DiI-labeled peptide amphiphile lipid micelle with POPC and egg sphingomyelin
# Key:
# [1] = Stability of peptide/phospholipid complexes by visual inspection; format: physicochemical; settings: SM, PC/SM 70/30, SEQ ID No. 25: peptide to phospholipids 1/4
# Method: Separate stock solutions of peptide and phospholipids were prepared in a solvent mixture composed of 80% tert-butyl alcohol (TBA) and 20% water to obtain separate solutions of 10 mM peptide, 20 mM 1,2-dioleoyl-sn-glycero-3-phosphocholine (DOPC) or 20 mM 1-palmitoyl-2-oleoyl-phosphatidylcholine (POPC) and 20 mM egg SM. […] The solutions were combined in a 1.5 ml glass vial, frozen (−70° C.), and lyophilized at −5 to −10° C. overnight. The resultant lyophilized cakes were rehydrated by addition of Dulbecco's phosphate buffered saline followed by gentle swirling of the contents. Formation of PALM was completed by incubating the PALM solution at 50° C. for 10 minutes. […] The qualities of the PALM preparations were evident in their appearance. A visually clear preparation indicated any nanoparticles that had formed were less than approximately 40 nm diameter, based on the Tyndall effect.
# [2] = tested on: SR-BI; assay: DiI uptake from DiI-labeled PALM or HDL by BHK(SR-BI) cells, SR-BI induced or un-induced; format: cell-based, human; settings: for Un-induced DiI Uptake: un-induced BHK(SR-BI) cells
# Method: A 40 μl aliquot of 10 mM peptide was combined with 56 μl of 20 mM POPC. 24 μl 20 mM SM(egg) and 16 μl 2.5 mM DiI in a small glass vial. The peptide and lipid solutions were prepared in 80% TBA/20% water. The DiI stock was prepared in 92% TBA/8% water. The combined solution was lyophilized and the resultant cake was rehydrated by addition of 0.2 ml of Dulbecco's phosphate buffered saline. The solution was briefly swirled, water bath sonicated (for approx. 15 sec.) and placed in a 50° C. heating block for 20 minutes.
# SR-BI interaction studies are done with BHK(SR-BI) cells stably transfected with an inducible human SR-BI gene by means of the GeneSwitch™ System (Invitrogen) (Vickers et al. (2011) Nat. Cell Biol. 13:423-433) . The cells were plated (96-well plate) (8000 cells/well) in growth medium (Dulbecco's modified Eagle medium containing 10% fetal bovine serum) containing 200 μg/ml each of zeocin and hygromycin. After 24 hours incubation, the growth medium was removed and replaced with 0.2% bovine serum albumin in Dulbecco's modified Eagle medium. The medium of cells to be induced for SR-BI expression also contained 10 nM mifepristone, added from a DMSO stock solution. DMSO alone was added to the medium of uninduced cells. The induction medium was removed after 24 hours and replaced with medium containing DiI-labeled PALM (32 μg peptide/ml) or DiI-labeled HDL (19 μg protein/mL) (Kalen Biomedical, Montgomery Village, MD). The test media were prepared by diluting an aliquot of DiI-labeled PALM (Example 10) or the DiI-labeled HDL in 0.2% bovine serum albumin in Dulbecco's modified Eagle medium. The solutions were passed through 0.2 μm pore size, polyethersulfone, sterilization filters before use. The cells were incubated for 4 hours. Next, the cells were washed 3 times with 0.1% albumin in Dulbecco's phosphate buffered saline (with calcium and magnesium). The last wash was replaced with 200 μl/well of t-butanol/water (95%/5%). The covered plate was left to stand at room temp (20-21° C.) for 30 min with occasional shaking. The fluorescence in each well was detected at 520 nm excitation and 580 nm emission with a 550 nm cutoff filter on a […] Gemini fluorescence plate reader (FIG. 9).
# [3] = molecular target: human scavenger receptor class B, type 1 (SR-BI) (human) (UniProt Q8WTV0); assay: cell-based or functional assay
# [4] = molecular target: T1, human scavenger receptor class B, type …; assay: cell-based or functional assay
# [5] = complex of the peptide with DOPC, C16PTX/PL 0
# [6] = complex of the peptide with DOPC, C16PTX/PL 0.1
# [7] = complex of the peptide with POPC, C16PTX/PL 0
# [8] = complex of the peptide with POPC, C16PTX/PL 0.1
# [9] = 4 hours, PALM prepared with the peptide 32 μg/ml, HDL 19 μg/ml, average (n = 4) ± SEM
Molecule,"Un-induced DiI Uptake [2, 9] [pmol/µg/mL]","Increase Over Un-induced (DiI uptake, BHK(SR-BI) cells) [4] [%]","Induced DiI Uptake (pmol/ug/ml), BHK(SR-BI) cells induced for human SR-BI, 4 h [4] [pmol/µg/mL]",further results
DV{AIB}QKFLELFNQLLEKWKQV (DV[Aib]QKFLELFNQLLEKWKQV) [SEQ ID NO: 32],0.28 ± 0.02,–,–,"Stability of Peptide/Phospholipid Complexes by Visual Inspection [1, 5]: Turbid; Stability of Peptide/Phospholipid Complexes by Visual Inspection [1, 6]: Turbid; Stability of Peptide/Phospholipid Complexes by Visual Inspection [1, 7]: Clear (A visually clear preparation indicated any nanoparticles that had formed were less than approximately 40 nm diameter); Stability of Peptide/Phospholipid Complexes by Visual Inspection [1, 8]: Turbid"
DVFQKL{AIB}ELFNQLLEKWKQV (DVFQKL[Aib]ELFNQLLEKWKQV) [SEQ ID NO: 25],0.24 ± 0.01,–,–,"Stability of Peptide/Phospholipid Complexes by Visual Inspection [1, 5]: Clear (A visually clear preparation indicated any nanoparticles that had formed were less than approximately 40 nm diameter); Stability of Peptide/Phospholipid Complexes by Visual Inspection [1, 6]: Clear (A visually clear preparation indicated any nanoparticles that had formed were less than approximately 40 nm diameter); Stability of Peptide/Phospholipid Complexes by Visual Inspection [1, 7]: Clear (A visually clear preparation indicated any nanoparticles that had formed were less than approximately 40 nm diameter); Stability of Peptide/Phospholipid Complexes by Visual Inspection [1, 8]: Clear (A visually clear preparation indicated any nanoparticles that had formed were less than approximately 40 nm diameter)"
"HDL: high density lipoprotein, human, labeled with DiI (Kalen Biomedical) [reference compound]",0.13 ± 0.02,–,–,"Induced DiI Uptake ([2]; SR-BI induced (10 nM mifepristone) BHK(SR-BI) cells, 4 hours, PALM prepared with the peptide 32 μg/ml, HDL 19 μg/ml, average (n = 4) ± SEM): 0.86 ± 0.03 pmol/µg/mL; Increase Over Un-induced ([2]; induced vs un-induced DiI uptake): 561%"
DV{AIB}QKLFELFNQLLEKWKQV (DV[Aib]QKLFELFNQLLEKWKQV) [SEQ ID NO: 27],0.34 ± 0.01,–,–,"Stability of Peptide/Phospholipid Complexes by Visual Inspection [1, 5]: Turbid; Stability of Peptide/Phospholipid Complexes by Visual Inspection [1, 7]: Clear (A visually clear preparation indicated any nanoparticles that had formed were less than approximately 40 nm diameter); Stability of Peptide/Phospholipid Complexes by Visual Inspection [1, 8]: Turbid"
DVFQKLVELFNQLLEKWKQV [SEQ ID NO: 26],0.49 ± 0.04,–,–,"Stability of Peptide/Phospholipid Complexes by Visual Inspection [1, 7]: Clear (A visually clear preparation indicated any nanoparticles that had formed were less than approximately 40 nm diameter); Stability of Peptide/Phospholipid Complexes by Visual Inspection [1, 8]: Turbid"
DVFQKL{AIB}ELFNQL{AIB}EKWKQV (DVFQKL[Aib]ELFNQL[Aib]EKWKQV) [SEQ ID NO: 35],0.35 ± 0.01,–,–,–
DVFQ{AIB}LKELFNQLLEKWKQV (DVFQ[Aib]LKELFNQLLEKWKQV) [SEQ ID NO: 3],0.16 ± 0.01,–,–,–
DVFQ{AIB}LKELLNQLLEKFKQV (DVFQ[Aib]LKELLNQLLEKFKQV) [SEQ ID NO: 5],0.54 ± 0.03,–,–,–
DiI-labeled human HDL (Kalen Biomedical) (from UniProt P02647 25-267),–,–,–,"Increase Over Un-induced (DiI uptake, BHK(SR-BI) cells) [3]: 561%; Induced DiI Uptake (pmol/ug/ml), BHK(SR-BI) cells induced for human SR-BI, 4 h [3]: 0.86 pmol/µg/mL"
"DVFQKLVELFNQLLEKWKQV (also: peptide amphiphile lipid micelle with POPC, egg sphingomyelin, DiI) [DiI-labeled PALM prepared with the peptide of SEQ ID NO: 26]",–,65,0.81,–
B1,–,264,1.26,–
B2,–,73,0.93,–
B3,–,221,0.9,–
B4,–,245,0.83,–
"DVFQ[Aib]LKELFNQLLEKWKQV (also: formulated in a micelle with POPC, egg sphingomyelin and DiI) [DiI-labeled PALM prepared with the peptide of SEQ ID NO: 3]",–,88,0.29,–
B5,–,90,0.66,–
